Tests used:
thrombin [1] = target: thrombin
thrombin [2] = target: thrombin; remark: listed apart in the source
thrombin [3] = target: thrombin; remark: listed apart in the source

| Substance | thrombin time test at 1, 4.9 and 9.8 nmol/l, potency against Mel-HV1 (fold against Mel-HV1) (thrombin [1]) | thrombin time test, clotting time with 10 µl SN2 fraction (thrombin [2]) [s] | thrombin time test at equimolar 3.1 nmol/l, effect against rHV1 (fold against rHV1) (thrombin [3]) | thrombin time test at equimolar 3.1 nmol/l, elongation of TT against rHV1 (fold against rHV1) (thrombin [3]) |
| --- | --- | --- | --- | --- |
| hirudin variant 1 with its endogenous wild-type signal peptide (WT-HV1), cell-free synthesized in K562 cell lysate (from UniProt P01050 1-65) (natural protein) | > 10 | 242 | 100 |  |
| hirudin variant 1 with its endogenous wild-type signal peptide (WT-HV1), cell-free synthesized in CHO cell lysate (from UniProt P01050 1-65) (natural protein) |  | 94 |  | 9 |
| hirudin variant 1 with its endogenous wild-type signal peptide (WT-HV1), cell-free synthesized in Sf21 cell lysate (from UniProt P01050 1-65) (natural protein) |  | 50 |  | > 2 |
